Measurements taken from article doi:10.1101/733147 (bioRxiv, 2020).

Biological target: T1, human ACVR2B.Fc fusion protein (human, UniProt Q13705)
T1 sequence: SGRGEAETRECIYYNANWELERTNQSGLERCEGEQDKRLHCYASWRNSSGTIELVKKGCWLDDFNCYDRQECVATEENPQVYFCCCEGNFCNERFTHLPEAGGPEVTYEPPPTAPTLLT
Experiment: SPR

B1: Activin A (wild type, mature dimer) (ligand)
chain: GLECDGKVNICCKKQFFVSFKDIGWNDWIIAPSGYHANYCEGECPSHIAGTSGSSLSFHSTVINHYRMRGHSPFANLKSCCVPTKLRPMSMLYYDDGQNIIKKDIQNMIVEECGCS
binding result: binds

B2: Activin A.ΔD406 (ligand)
chain: GLECDGKVNICCKKQFFVSFKDIGWNDWIIAPSGYHANYCEGECPSHIAGTSGSSLSFHSTVINHYRMRGHSPFANLKSCCVPTKLRPMSMLYYDGQNIIKKDIQNMIVEECGCS
binding result: binds
